Assay: soluble on expression in E. coli; label from the status in PepcDB or PDB records

Soluble on expression in E. coli, not soluble:
MGSDKIHHHHHHMGKLVVQGGAVLEGEVEISGSKNAALPIMAAAILCDEEVILKNVPRLQDVFVMIDILRSIGFRVEFEENELKIKRENDISQEVPYELVRKMRASFNVLGPIAVRTGRAKVALPGGCSIGVRPVDFHLEGLKKMGFSIKVEHGFVEACFERRIDYVTITLPFPSVGATEHLMTTAALLKGARVVIENAAMEPEIVDLQNFINRMGGHIEGAGTSRIVIEGVEKMQGVEYSIIPDRIEAGTYLVAIAASRGKGLVKNVNPDHLTNFFEKLEETGAKLKVLGNEVEIEMRERPKAVDVTTNPYPGFPTDLQPQMMAYLSTASGVSVITENVFKTRFLHVDELKRMGADIEVSGNVAIVKGVEKLSGAPVEGTDLRATAALLIAGIIADGVTEISNVEHIFRGYEDVIDKFSELGAKIEYVEKEN
MGSDKIHHHHHHMGKSKRKILNWKQYNQALVNRGSVTFWLDKSAINAWHCKAHHGGRGRGFQFSDTAIETALMLKGVFKLSLRATEGFINSLFRLMDVPLAAPDYTCISKRAKTVEVKYRNPCRGPVTHLVVDSTGLKVYGEGEWKTRKHGKERRRTWRKLHLAIDADTHDVVSAEVSLVNVADNEVLPTMLNPLRRKVNQVSADGAYDTKECHKLLRHKGAKPTIPPRSNAGYWEDGHPRNEAVEALKSGTLKQWKDDNDYHQRSLSETAMYRYKQLISSKLSLRDYNAQVGEALAGVKAMNKVIGLGMPVRQTTA
MGSDKIHHHHHHMGNILWVASYPKSGNTWVRAFLENYIQNQAQPIDINTMHTISTAESAAHRYQHYLPKDKTATTELTLEEVSVLRPQVQADIAHQANGTTFVKTHNYLGEYNGHPLHNSSVTSGAIYVVRNPLDVAISMANYFGYSIDEAIAYMAEEMTGTPNEAPHVPQIITSWSMHVSSWTADDASKLILRYEDMLDDPKKVFRKVESFLGLKKDPVRLKNAIKHSSFAQLKAQETKLGFVEKHENANAFFRNGGKHQWKTKLTPEQVQKIVATHYEQMKRFKYLPAGM
MGSDKIHHHHHHMGNRRGFLKMSASLAAAPLIPESSAVSNELDIPVSNKRPHELARDEAHWRAVGRLYSIQEEIINLEHGYWGQMSIPVEQALARHTHRVNRELSWYARREYDRDFLKARAAVADALGVSVEELMLTRNATESFVNLITQYDELSSGNAILWADADYPEFKRMMSWLAESRQVRGTMLSLPAAGTDEDYIRIYREAFDALPDLKLMLLTHVSNQHGLVLPVREIAAIAKCRGIHVICDCAQSWGLLDFTLDDLNVDWAVFNLHKWIGSPVGVGALYMRHGTLVPVRPFPGEDSSDTDVANRVHLATSDFASFLTVPDALAFHRAIGGANKQARLNYLREAWVASLEGSSAVEVLGATGSKNASGMGAFRLRGQTSKVQVSALQTRLETEFRIFTVVRNDLASGACIRVTPQVFTPLEHVQALADAIVEISVTG
MGSDKIHHHHHHMGQKVHPRGFRLGLSADWQAKWFNEKNYKEWLLEDEEIRKIIKNKYYHAGISEIYVERPDAERINITVKTARPGIIIGRKGSEITSLREELERKFNRRVVINIEEIKTPELDAQLVAESIASRIEKRASYKVAMKRAIMNAMRKGAQGIKVMVAGRLGGAEIARREWYLRGRLPLQKIKAIIDYGTATAWTKYGTIGIKVWIYKGDADI
MGSDKIHHHHHHMGQSEVNFYQQEVVELLKQVIEPNLKNDIVSLGMVRNLRIVDDYVYLRLYIGSHQQQLQTEVEAKLSALSWCKKTYIQICTIPGVKITLGISSGKGGVGKSTTAVNIAAALSLQGAKVGLLDADVYGPNVPQMLGLGQADVEVIQTPTGEKFLPLEVQGIKLMSVGLLAEENRPLAWRGPVLHKIITQFINDVEWGELDYLLIDLPPGTGDAQITIIQESPICGVILVTTPQQVAVADVRRNIYMFRQVGVPVLGIVENMSYLICGDCGSRTYIFGSGGGEQLATELQAPLLGQIPIDQRICSGGDSGNPIAISEQTSPASEVFRNIAIAIGLSFP
MGSDKIHHHHHHMGRYLERTEHISRFSQAHYFFSIDAPKSVKKEHILESVLNMAGSYVEYLGSGNKMETMEVAYYIGLNEFNASSIKHSIVKARENARGAKDSISSELWQSINTFYHSINLMDRATFNEMGIYEFSKNVLQNSSVIKGNIDNTLLHEEAWSIIHLGQHIERTTQVIRMIVTKINDINRIPKKEYYNMIELFENVNLLKSTEAYDMSKIFYREVPSVSHSLEFLTLNRNFPKSIVYNLRHIEHCLLRITNLSKHETNSLEFYASKLLCTVKYTSIQDIEKEPLAFYNDLLNKVAKLADMLETKYLQY
MGSDKIHHHHHHMGSYPDGKRIFVKMNTSPILPGLAREQIAPQLLWSRRLADGRDMCAQEWLTGKILTPYDMNRKQIVNILTRLHRSRPLMTQLSRLGYAMETPVDLLQSWQETAPDALRKNHFISEVMADLRQTIPGFREDHATIVHGDVRHSNWIETDSGLIYLVDWDSVRLTDRMFDVAHMLCHYISEHQWKEWLTYYGYKYNQTVLSKLYWYGQLSYLSQISKYYMNQDLENVNREIHGLRHFRDKYGKRR
MGSDKIHHHHHHMGTRLDILMIHSNLPLLNMLWAHITDELERLDKMLNRFDATSEVSKLNSHTQQDSVSVSAELEDILRSCQYYYEKTLHLFDITLNDFSQIQIHGNHHISFSNFSVTLDFGGFAKGYALKKIQEILLRGNIENAFVDFGNSSIMGIGHHPYGDCWKVSLQNPYTQQTLDEFCLTDNTLSTSGNTEQYTGHIINPLTGIYNEQKKVTSILSDNPLDAEILSTVWMIADDQQREQINENFKHIKGTIYTL
MGSDKIHHHHHHMGVFLDKSIKEVVDELNGRYFLPDIQREYVWLQNADGKKIEQLFDSILRGYPIGFFLFWKLPKEDIAKSDEQDSDKLNFQLYQFITNYDERKPHNEKIRIEQIKRDDLYIVLDGQQRLTSLYIGLKGTRTLKKKNARYDNPNAYEEKRLYLNLKHQPNMDNPEDNYEFEFHAQKPENDKKHWWFKVGDILESESHVWNYADEHGLKGNELKLLGDLHRAFHTKQLVSFFEETEKNLNKVLNIFIRVNSGGVKLSYSDLLMSILTASFSSDIREKMNELVDALKDKGFSNMG
MGSDKIHHHHHHMHAVSHLASKDAQSNASPQVALIAEGGGQRGIFTAGVLDAWLDGGFDPFDLFIGTSAGSQNLSSFLARQKGYAKRLIRGLSRHKRFYRLGRGLVGGNVVDLDWYFEQTRQGMFKLDLNAATASLGHRQLLITTTNASDRKGYFLSPSSKSQWRELLKASSALPFLYKQGVKLTPWLNDNACNSDKACNNGAANHGGSHHSAALSEAIDSDFYLDGGLAAPLPVREAYRRGARKIVVIRTVSEDFQAQSAWVHKLKSWICVSGFCPKTIDYLVQHEQAYQDELDFIANPPEDVEIVQIFAAENLQSKLLGSTDADLRHDYHAGMNAGKQFLTQDPMALTQMNVHFQTQVQTNAHTQTHIQALSQIKPFSALSA
MGSDKIHHHHHHMHFNAPSYPKQWFDTKSAGTPVVILTGMGCSYEEWYEVIQSLRPAHRILSFHRHSWKEGDGIHRTGHAIQQLQTLLSGSNVDEPILLIGHSYGGLIAQEFTKLFPERIKGLILVDSTSVDLHELDALDTPVLDAVSSDAAWQALCRDYAIKTKEQLKQLLQPVLTGAQKRLPQAVQDALVDFQTEPDLYAMMDSEVEHWKTDAARIRTGPFPDVPLIVIGRDPELSIQDGINDGLPEDELRQVEETWHRLVLRQATLTKQADFITATGAGHAIHLDRPDLVISAVTKLDVT
MGSDKIHHHHHHMHFYTARQPILNRRQRVVAYELLFRDSYKNCFPVDVPDKVATAKLLVNSFLSMDIEDMTDGKPALINFPTSLLKEHLVHILPYKNLVIEVLETVEPNDDNFAILKQLFDSGYHLALDDFIYSPAWDRFLPLFKLIKIDIVATPLDTIAHILPKLKQKKTRLLAEKVETQADFLHAKALGFDYFQGYFFYKPEIVKGNEVELSQPFLMSIYTEVMKPSFSYRKLEAYFTQDMDLSYKLLRFVNSSYFSHVKDIISLKQAMIFLGENQLRKFVCLIVMAQLNPDKPQILIQNTMLRARLCEVIAKVMKLNKLADAAFLTGLFSTLDAILDKPMEKVLHSLPLAPEINNALLHQQGELAECLALAIAYMQGNWEFVSEFVSRNHINAGELTRRCNQVYLWLSEYQRSSSSKA
MGSDKIHHHHHHMHHDLVDVLIIEDESELARLHAELVQKHPRLRLAGMAASLAQARQLLHATPPQLVLLDNYLPDGKGVTLMTDPALATSQCSVIFITAASDMETCSQAIRNGAFDYILKPVSWKRLSQSLERFIQFYDQQREWKIVDQQNVDSLYQLQAKNYRVDSGSKGIEEKTLALVQGLFSDREAHCFSVDEVVSAAGLSKTTARRYLEHGVETGFLEVEMLYGKIGHPRRLYRRAKVKS
MGSDKIHHHHHHMHNEIVTGNVLPFNIFEKADSKLLAWIRDVSVVREITTSCRLIEEGSTPDGLFVVESGAITVCTKQADGGSLSLASLKVGNLVGEMSWLEERPAVASIDAGPGSRLLQIPREALESINQSEAFICHLLYRLIAEKLALQVQGQNIWVHRIAGTDQEPLRKVLVLFAELEEKDVAWIARSGKFKRLVAGDVLLQEGDNVPGLYLLLAGEARISITENGSWQSVGSSRRGELLGELTMLNPQAAGATANVDTVTGLELLVLDKEELSMTLNADPRLAKRFYKGIARMLSQRSRDQLLSRGFAEASRIAEELIDNEQLGLDQLSAISSAGLRFDWLCRQFQDKEG
MGSDKIHHHHHHMHVIKAKDDYTYRHTVGVSILSRLIGTWLKLDEVILKELTLGAVLHDIGKVEIPDAILNKPGALTKDEYRIIQDHTVKGYRIIQESGIYSDTVALMALEHHEREDGTGYPYQKTRNEIHLLSKILAVADVFHAMTSDRIYRKGMALYDVLLQMRQDRFGKLEPRITDFFVRRFMEQCIGSKARLNDGSRVEIVFIPYENPICPIVKQGTNYIDLRMSPLYIQELIPVTVKV
MGSDKIHHHHHHMIDFIISIDDCAVELDSRQSWKIRYPLSTILFLVFVCQLAGIETWKEMEDFIEMNEPLFATYVDLSEGCPSHDTLERVISLVNSDRLKELKVQFEQSLTSLDAVHQLISVDGKTIRGNRGKNQKPVHIVTAYDGGHHLSLGQVAVEEKSNEIVAIPQLLRTIDIRKSIVTIDAMGTQTAIVDTIIKGKADYCLAVKGNQETLYDDIALYFSDVNLLEELQENAQYYQTVEKSRGQIEVREYWVSSDIKWLCQNHPKWHKLRGIGMTRNTIDKDGQLSQENRYFIFSFKPDVLTFANCVRGHWQIESMHWLLDVVYHEDHHQTLDKRAAFNLNLIRKMCLYFLKVMVFPKKDLSYRRKQRYISVHLEDYLVQLFGERG
MGSDKIHHHHHHMIDVENILEKMKPNQKINYDWVMQQMVKQWQASDIRPKILMHVCCAPCSTYTLEYLSQWADVTIYFANSNIHPKDEYYRREYVTQKFVHDFNKNTGYSVQFLSAPYEPNEFFKIVHGLEEEPEGGDRCKVCYDFRLDKTAEKAVELGFDYFGSALTISPHKNSQTINTIGIDVQKIYDTQYLPSDLKKNKGYQRSVEMCKDYDIYRQCYCGCIFGAKDQGINLLQIKKDAKAFVSDKDGKEEFPNIRFTFNGKSM
MGSDKIHHHHHHMIEFDNLTYLHGKPQGTGLLKANPEDFVVVEDLGFEPDGEGEHILVRILKNGCNTRFVADALAKFLKIHAREVSFAGQKDKHAVTEQWLCARVPGKEMPDLSAFQLEGCQVLEYARHKRKLRLGALKGNAFTLVLREVSNRDDVEQRLIDICVKGVPNYFGAQRFGIGGSNLQGAQRWAQTNTPVRDRNKRSFWLSAARSALFNQIVAERLKKADVNQVVDGDALQLAGRGSWFVATTEELAELQRRVNDKELMITAALPGSGEWGTQREALAFEQAAVAAETELQALLVREKVEAARRAMLLYPQQLSWNWWDDVTVEIRFWLPAGSFATSVVRELINTTGDYAHIAE
